{"source": "patent US20250122303A1", "about": "“TREATMENT AND PREVENTION OF CANCER USING HER3 ANTIGEN-BINDING MOLECULES” (Hummingbird Bioscience Pte. Ltd., priority 2021, published 2025)", "key": {"[1]": {"target": "human HER3 expressed on cells (HEK293 HER3 O/E cells) (human) (UniProt P21860)", "experiment": "flow cytometry, HEK293 cells overexpressing human HER3, 20 ug/ml antibody, FITC anti-Fc secondary; same antibody on WT HEK293: 0.07"}, "[2]": {"target": "human HER3 expressed on cells (HEK293 HER3 O/E cells) (human) (UniProt P21860)", "experiment": "flow cytometry, HEK293 cells overexpressing human HER3, 20 ug/ml antibody, FITC anti-Fc secondary; same antibody on WT HEK293: 1.68"}, "[3]": {"target": "His-tagged FcγRIIIa (V158) (human) (UniProt P08637)", "experiment": "Bio-Layer Interferometry (determined as described in Example 7)"}, "FcRn (human)": {"target": "FcRn (human) (UniProt P55899)", "experiment": "Bio-Layer Interferometry (determined as described in Example 7)"}, "moFcgRIV": {"target": "moFcgRIV", "experiment": "Bio-Layer Interferometry (determined as described in Example 7)"}, "moFcRn (mouse)": {"target": "moFcRn (mouse) (UniProt Q61559)", "experiment": "Bio-Layer Interferometry (determined as described in Example 7)"}, "FcgRIIIA (F158) (human)": {"target": "FcgRIIIA (F158) (human) (UniProt P08637)", "experiment": "Bio-Layer Interferometry (determined as described in Example 7)"}, "[4]": {"target": "human HER3 expressed on cells (HEK293 HER3 O/E cells) (human) (UniProt P21860)", "experiment": "flow cytometry on HEK293T HER3 O/E cells, 10 ug antibody as printed, FITC-conjugated anti-Fc secondary"}}, "data": [{"substance": "Isotype (antibody)", "values": [{"measurement": "% Parent (HER3 positive)", "setting": "[1]", "result": 0.12, "unit": "%"}, {"measurement": "% Parent (HE3 positive)", "setting": "[2]", "result": 13.9, "unit": "%"}]}, {"substance": "LJM716 (antibody)", "values": [{"measurement": "Kd", "setting": "[3]", "result": 705, "unit": "nM"}, {"measurement": "Kd", "setting": "FcRn (human)", "result": 16.5, "unit": "nM"}, {"measurement": "Kd", "setting": "moFcgRIV", "result": 701, "unit": "nM"}, {"measurement": "Kd", "setting": "moFcRn (mouse)", "result": 12.8, "unit": "nM"}, {"measurement": "Kd", "setting": "FcgRIIIA (F158) (human)", "result": 5380, "unit": "nM"}]}, {"substance": "hIgG1 Isotype (antibody)", "values": [{"measurement": "% Parent (HER3 positive)", "setting": "[4]", "result": 0.18, "unit": "%"}]}]}
